Assay results: the supplement of paper PMC9112550, “Optimization of the antimicrobial peptide Bac7 by deep mutational scanning” (BMC Biology, 2022)

Tested on: Escherichia coli TOP10
Assay: shrunken log2 fold change of peptide-encoding DNA abundance (4.5 h post-induction vs induction); higher = less antimicrobial activity (less host growth inhibition)
Details: time post-induction: 4.5 h; library: site-saturation at positions 5, 18, 19, 20
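Note: peptides expressed intracellularly from a pBAD plasmid library in pooled LB shake-flask culture, induced with 0.3% L-arabinose, DNA abundance read by NGS, three biological replicates, DESeq2 with apeglm shrinkage.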

Sequence	shrunken log2 fold change
RRIRGRPPRLPRPRPRPMKQPRP	0.316
RRIRQRPPRLPRPRPRPRKPPRP	0.0318
RRIRKRPPRLPRPRPRPKDWPRP	0.742
RRIRPRPPRLPRPRPRPMGDPRP	0.234
RRIRDRPPRLPRPRPRPIYWPRP	0.202
RRIRLRPPRLPRPRPRPHDEPRP	0.0746
RRIRSRPPRLPRPRPRPPFHPRP	-0.0308
RRIRNRPPRLPRPRPRPIEDPRP	-0.0858
RRIRPRPPRLPRPRPRPAGTPRP	-0.07
RRIRHRPPRLPRPRPRPFDRPRP	-0.172
RRIRTRPPRLPRPRPRPRNEPRP	-0.0624
RRIRCRPPRLPRPRPRPVRVPRP	0.272
RRIRHRPPRLPRPRPRPLAWPRP	0.198
RRIRWRPPRLPRPRPRPNILPRP	-0.402
RRIRIRPPRLPRPRPRPCEQPRP	0.0927
RRIRERPPRLPRPRPRPGGGPRP	0.855
RRIRRRPPRLPRPRPRPEHWPRP	0.315
RRIRNRPPRLPRPRPRPYTQPRP	-0.798
RRIRKRPPRLPRPRPRPAALPRP	0.831
RRIRVRPPRLPRPRPRPWCRPRP	-0.396
RRIRARPPRLPRPRPRPYRQPRP	-0.0187
RRIRARPPRLPRPRPRPDHMPRP	-0.328

Sequence	shrunken log2 fold change
RRIRGRPPRLPRPRPRPKMEPRP	0.582
RRIRLRPPRLPRPRPRPHMTPRP	-0.466
RRIRYRPPRLPRPRPRPYETPRP	0.112
RRIRDRPPRLPRPRPRPQARPRP	1.05
RRIRDRPPRLPRPRPRPHNPPRP	-0.231
RRIRERPPRLPRPRPRPNHQPRP	-0.259
RRIRMRPPRLPRPRPRPAWGPRP	0.81
RRIRARPPRLPRPRPRPPCAPRP	0.598
RRIRPRPPRLPRPRPRPYVSPRP	0.00613
RRIRDRPPRLPRPRPRPMPEPRP	0.0845
RRIRFRPPRLPRPRPRPHWAPRP	-0.0371
RRIRSRPPRLPRPRPRPITKPRP	-0.083
RRIRSRPPRLPRPRPRPHATPRP	0.378
RRIRSRPPRLPRPRPRPIKFPRP	-0.0229
RRIRHRPPRLPRPRPRPETEPRP	0.105
RRIRDRPPRLPRPRPRPLLYPRP	0.116
RRIRMRPPRLPRPRPRPHWVPRP	-0.0142
RRIRPRPPRLPRPRPRPWKRPRP	-0.0317
RRIRNRPPRLPRPRPRPAGWPRP	0.558
RRIRWRPPRLPRPRPRPISWPRP	0.0165
RRIRGRPPRLPRPRPRPNPIPRP	0.0839
RRIRYRPPRLPRPRPRPRPAPRP	0.393

Sequence	shrunken log2 fold change
RRIRKRPPRLPRPRPRPMWAPRP	0.184
RRIRNRPPRLPRPRPRPLMQPRP	-0.0301
RRIRARPPRLPRPRPRPEWDPRP	1.13
RRIRDRPPRLPRPRPRPAMEPRP	-0.0517
RRIRQRPPRLPRPRPRPGLDPRP	0.255
RRIRRRPPRLPRPRPRPGYDPRP	0.0506
RRIRQRPPRLPRPRPRPKGQPRP	-0.0264
RRIRSRPPRLPRPRPRPPMAPRP	0.169
RRIRHRPPRLPRPRPRPMCYPRP	0.118
RRIRGRPPRLPRPRPRPCSRPRP	0.0838
RRIRHRPPRLPRPRPRPYWTPRP	0.0019
RRIRWRPPRLPRPRPRPEMVPRP	-0.222
RRIRDRPPRLPRPRPRPPSYPRP	-0.222
RRIRARPPRLPRPRPRPEISPRP	0.81
RRIRTRPPRLPRPRPRPNINPRP	-0.812
RRIRERPPRLPRPRPRPDRPPRP	-0.165
RRIRYRPPRLPRPRPRPCWGPRP	-0.204
RRIRYRPPRLPRPRPRPLNLPRP	-0.369
RRIRQRPPRLPRPRPRPCFQPRP	-0.252
RRIRLRPPRLPRPRPRPILRPRP	-0.156
RRIRRRPPRLPRPRPRPEYFPRP	0.2
RRIRIRPPRLPRPRPRPDTLPRP	-0.658

Sequence	shrunken log2 fold change
RRIRWRPPRLPRPRPRPLQEPRP	0.36
RRIRTRPPRLPRPRPRPWTNPRP	-0.148
RRIRYRPPRLPRPRPRPTIKPRP	-0.151
RRIRWRPPRLPRPRPRPVFAPRP	0.394
RRIRGRPPRLPRPRPRPETPPRP	3.43
RRIRLRPPRLPRPRPRPIHFPRP	-0.77
RRIRQRPPRLPRPRPRPHGYPRP	-0.138
RRIRMRPPRLPRPRPRPHDIPRP	-0.104
RRIRDRPPRLPRPRPRPGNVPRP	-0.0882
RRIRWRPPRLPRPRPRPMRDPRP	0.814
RRIRARPPRLPRPRPRPYTTPRP	-0.168
RRIRCRPPRLPRPRPRPMVKPRP	-0.228
RRIRFRPPRLPRPRPRPPDEPRP	0.684
RRIRRRPPRLPRPRPRPMHVPRP	0.281
RRIRNRPPRLPRPRPRPDYVPRP	-0.296
RRIRQRPPRLPRPRPRPYTFPRP	-0.0307
RRIRKRPPRLPRPRPRPAIGPRP	1.04
RRIRYRPPRLPRPRPRPPVLPRP	-0.132
RRIRVRPPRLPRPRPRPLKEPRP	0.0279
RRIRRRPPRLPRPRPRPNSGPRP	0.279
RRIRCRPPRLPRPRPRPYQLPRP	-0.119
RRIRWRPPRLPRPRPRPKILPRP	-0.0469

Sequence	shrunken log2 fold change
RRIRIRPPRLPRPRPRPGPYPRP	-0.376
RRIRPRPPRLPRPRPRPVYNPRP	0.88
RRIRDRPPRLPRPRPRPSQFPRP	-0.181
RRIRQRPPRLPRPRPRPHKTPRP	-0.146
RRIRHRPPRLPRPRPRPSTLPRP	-0.0931
RRIRERPPRLPRPRPRPIRSPRP	-0.112
RRIRPRPPRLPRPRPRPNNKPRP	-0.542
RRIRFRPPRLPRPRPRPVVGPRP	0.362
RRIRLRPPRLPRPRPRPIDEPRP	-0.178
RRIRVRPPRLPRPRPRPIDSPRP	-0.0289
RRIRSRPPRLPRPRPRPSNEPRP	-0.476
RRIRARPPRLPRPRPRPWQRPRP	0.000557
RRIRHRPPRLPRPRPRPFCYPRP	-0.286
RRIRVRPPRLPRPRPRPQSSPRP	-0.0172
RRIRSRPPRLPRPRPRPAPVPRP	0.269
RRIRFRPPRLPRPRPRPAQGPRP	-0.00447
RRIRYRPPRLPRPRPRPSVNPRP	-0.177
RRIRCRPPRLPRPRPRPPTGPRP	0.232
RRIRERPPRLPRPRPRPTVLPRP	-0.0263
RRIRPRPPRLPRPRPRPFRIPRP	0.000199
RRIRRRPPRLPRPRPRPDAPPRP	0.888
